Each substance was assayed against HLA-A*02:01 (Homo sapiens, UniProt P04439, D140Y/D185E/D98H/E176V/E277Q/G131W/G231S/I119V/I121R/I166T/I218V/L300P/L318F/N151K/N90K/P208A/P217A/Q86G/Q94H/R138H/R169H/T345S) (assay: MHC binding assay (UV-ligand exchange, beta2m ELISA)). Settings: binding to HLA-A*02:01, β2m ELISA.
Text: Candidate peptides for T cell based therapies according to the present invention were further tested for their MHC binding capacity (affinity). The individual peptide-MHC complexes were produced by UV-ligand exchange, where a UV-sensitive peptide is cleaved upon UV-irradiation, and exchanged with the peptide of interest as analyzed. Only peptide candidates that can effectively bind and stabilize the peptide-receptive MHC molecules prevent dissociation of the MHC complexes. To determine the yield of the exchange reaction, an ELISA was performed based on the detection of the light chain (β2m) of stabilized MHC complexes. The assay was performed as generally described in Rodenko et al. (Rodenko et al., 2006).
96 well MAXISorp plates (NUNC) were coated over night with 2 ug/ml streptavidin in PBS at room temperature, washed 4× and blocked for 1 h at 37° C. in 2% BSA containing blocking buffer. Refolded HLA-A*02:01/MLA-001 monomers served as standards, covering the range of 15-500 ng/ml. Peptide-MHC monomers of the UV-exchange reaction were diluted 100 fold in blocking buffer. Samples were incubated for 1 h at 37° C., washed four times, incubated with 2 ug/ml HRP conjugated anti-β2m for 1 h at 37° C., washed again and detected with TMB solution that is stopped with […]. Absorption was measured at 450 nm. Candidate peptides that show a high exchange yield (preferably higher than 50%, most preferred higher than 75%) are generally preferred for a generation and production of antibodies or fragments thereof, and/or T cell receptors or fragments thereof, as they show sufficient avidity to the MHC molecules and prevent dissociation of the MHC complexes.

Row | Substance | Peptide exchange (MHC class I binding score, peptide exchange yield)
1 | 72 (VLSTRVTNV; listed as Homo sapiens) [compound 72] | ++ (≧20% = ++)
2 | 142 (LLDAAHASI; listed as Homo sapiens) [compound 142] | ++ (≧20% = ++)
3 | 96 (ALDTTRHEL; listed as Homo sapiens) [compound 96] | ++ (≧20% = ++)
4 | 192 (TLLPSSGLVTL; listed as Homo sapiens) [compound 192] | ++ (≧20% = ++)
5 | 286 (FLTEMVHFI; listed as Homo sapiens) [compound 286] | +++ (≧50 = +++)
6 | 80 (VLTGQVHEL; listed as Homo sapiens) [compound 80] | +++ (≧50 = +++)
7 | 42 (KQMSISTGL; listed as Homo sapiens) [compound 42] | ++ (≧20% = ++)
8 | 258 (QLVQRVASV; listed as Homo sapiens) [compound 258] | ++ (≧20% = ++)
9 | 44 (AVFNLVHVV; listed as Homo sapiens) [compound 44] | +++ (≧50 = +++)
10 | 276 (RMPTVLQCV; listed as Homo sapiens) [compound 276] | +++ (≧50 = +++)
11 | 270 (TLLTFFHEL; listed as Homo sapiens) [compound 270] | +++ (≧50 = +++)
12 | 36 (TVLQELINV; listed as Homo sapiens) [compound 36] | +++ (≧50 = +++)
13 | 28 (IKVTDPQLLEL; listed as Homo sapiens) [compound 28] | ++ (≧20% = ++)
14 | 166 (LLGDSSFFL; listed as Homo sapiens) [compound 166] | +++ (≧50 = +++)
15 | 177 (ALINVLNAL; listed as Homo sapiens) [compound 177] | +++ (≧50 = +++)
16 | 243 (GLAEFQENV; listed as Homo sapiens) [compound 243] | ++ (≧20% = ++)
17 | 194 (KLLEEVQLL; listed as Homo sapiens) [compound 194] | ++ (≧20% = ++)

Row | Substance | Peptide exchange (MHC class I binding score, peptide exchange yield)
18 | 199 (SVADLAHVL; listed as Homo sapiens) [compound 199] | ++ (≧20% = ++)
19 | 159 (QLGPVPVTI; listed as Homo sapiens) [compound 159] | +++ (≧50 = +++)
20 | 1 (KLQEKIQEL; listed as Homo sapiens) [compound 1] | ++++ (≧75% = ++++)
21 | 278 (VLEDKVLSV; listed as Homo sapiens) [compound 278] | +++ (≧50 = +++)
22 | 30 (IITEVITRL; listed as Homo sapiens) [compound 30] | +++ (≧50 = +++)
23 | 140 (FLDSQITTV; listed as Homo sapiens) [compound 140] | +++ (≧50 = +++)
24 | 7 (ALLQALMEL; listed as Homo sapiens) [compound 7] | +++ (≧50 = +++)
25 | 81 (ILAEEPIYI; listed as Homo sapiens) [compound 81] | ++ (≧20% = ++)
26 | 160 (TLQEWLTEV; listed as Homo sapiens) [compound 160] | +++ (≧50 = +++)
27 | 229 (YLYELEHAL; listed as Homo sapiens) [compound 229] | ++ (≧20% = ++)
28 | 228 (SLLELDGINLRL; listed as Homo sapiens) [compound 228] | +++ (≧50 = +++)
29 | 211 (LLTTVLINA; listed as Homo sapiens) [compound 211] | +++ (≧50 = +++)
30 | 51 (LDSEALLTL; listed as Homo sapiens) [compound 51] | ++ (≧20% = ++)
31 | 134 (SLYKSFLQL; listed as Homo sapiens) [compound 134] | ++ (≧20% = ++)
32 | 91 (LLPSIFLMV; listed as Homo sapiens) [compound 91] | ++ (≧20% = ++)
33 | 20 (ALVEKGEFAL; listed as Homo sapiens) [compound 20] | ++ (≧20% = ++)
34 | 95 (KLIDEDEPLFL; listed as Homo sapiens) [compound 95] | +++ (≧50 = +++)

Next, values leading:

Row | Peptide exchange (MHC class I binding score, peptide exchange yield) | Substance
35 | ++ (≧20% = ++) | 221 (IMLNSVEEI; listed as Homo sapiens) [compound 221]
36 | ++ (≧20% = ++) | 212 (MTLSEIHAV; listed as Homo sapiens) [compound 212]
37 | +++ (≧50 = +++) | 13 (RLHDENILL; listed as Homo sapiens) [compound 13]
38 | +++ (≧50 = +++) | 45 (FLPVSVVYV; listed as Homo sapiens) [compound 45]
39 | +++ (≧50 = +++) | 111 (AQLEGKLVSI; listed as Homo sapiens) [compound 111]
40 | +++ (≧50 = +++) | 112 (ILAQDVAQL; listed as Homo sapiens) [compound 112]
41 | ++ (≧20% = ++) | 247 (NLLIDDKGTIKL; listed as Homo sapiens) [compound 247]
42 | ++ (≧20% = ++) | 110 (QIQGQVSEV; listed as Homo sapiens) [compound 110]
43 | +++ (≧50 = +++) | 59 (ALADGIKSFLL; listed as Homo sapiens) [compound 59]
44 | ++ (≧20% = ++) | 18 (KTASINQNV; listed as Homo sapiens) [compound 18]
45 | ++ (≧20% = ++) | 281 (LLLESDPKVYSL; listed as Homo sapiens) [compound 281]
46 | +++ (≧50 = +++) | 62 (SLVENIHVL; listed as Homo sapiens) [compound 62]
47 | ++ (≧20% = ++) | 208 (HLNNDRNPL; listed as Homo sapiens) [compound 208]
48 | ++ (≧20% = ++) | 33 (TLDRNSLYV; listed as Homo sapiens) [compound 33]
49 | + (≧10% = +) | 259 (GPGIFPPPPPQP; listed as Homo sapiens) [compound 259]
50 | +++ (≧50 = +++) | 109 (ILGSFELQL; listed as Homo sapiens) [compound 109]
51 | ++ (≧20% = ++) | 19 (KVFELDLVTL; listed as Homo sapiens) [compound 19]
52 | +++ (≧50 = +++) | 162 (GLLGNLLTSL; listed as Homo sapiens) [compound 162]
53 | +++ (≧50 = +++) | 164 (MLIIRVPSV; listed as Homo sapiens) [compound 164]
54 | ++++ (≧75% = ++++) | 161 (NLLDENVCL; listed as Homo sapiens) [compound 161]
55 | +++ (≧50 = +++) | 224 (LLFDWSGTGRADA; listed as Homo sapiens) [compound 224]
56 | +++ (≧50 = +++) | 249 (YLYQILQGI; listed as Homo sapiens) [compound 249]
57 | ++ (≧20% = ++) | 279 (VLMDEGAVLTL; listed as Homo sapiens) [compound 279]
58 | ++ (≧20% = ++) | 163 (GLEERLYTA; listed as Homo sapiens) [compound 163]
59 | +++ (≧50 = +++) | 173 (RLIDIYKNV; listed as Homo sapiens) [compound 173]
60 | +++ (≧50 = +++) | 241 (KQFEGTVEI; listed as Homo sapiens) [compound 241]
61 | ++ (≧20% = ++) | 74 (GLAFLPASV; listed as Homo sapiens) [compound 74]
62 | ++ (≧20% = ++) | 38 (VLQQESNFL; listed as Homo sapiens) [compound 38]

— patent publication US9802997B2, “Peptides and combination of peptides for use in immunotherapy against various tumors” (immatics biotechnologies GmbH, priority 2015, dated 2017)
